{"source": "paper PMC2867299", "about": "(The Journal of Cell Biology, 2010)", "binders": {"B1": {"name": "His-She3p-N (N-terminal half of She3p, aa 1-234) (domain or fragment)", "chain": "MSDQDNTQTSSSKLAPHHNIFMANLESSPTKDRNTSSQNASSSRVIESLHDQIDMLTKTNLQLTTQSQNLLSKLELAQSKESKLLENLNLLKNENENLNSIFERKNKKLKELEKDYSELSNRYNEQKEKMDQLSKLAKNSSAIEQSCSEKLQNMEVNYNSLLESQNLYRDHYSDEISKLNEKIGLLELELSNQNLNYGSDTSSNSDIELNLNKFNDSVKDLKSLETEKDSKLSK"}}, "target": "T1, GST-Myo4p-L-GT (Myo4p linker and globular tail, from residue 1042) (S. cerevisiae, UniProt P32492 1042-1471)", "T1 sequence": "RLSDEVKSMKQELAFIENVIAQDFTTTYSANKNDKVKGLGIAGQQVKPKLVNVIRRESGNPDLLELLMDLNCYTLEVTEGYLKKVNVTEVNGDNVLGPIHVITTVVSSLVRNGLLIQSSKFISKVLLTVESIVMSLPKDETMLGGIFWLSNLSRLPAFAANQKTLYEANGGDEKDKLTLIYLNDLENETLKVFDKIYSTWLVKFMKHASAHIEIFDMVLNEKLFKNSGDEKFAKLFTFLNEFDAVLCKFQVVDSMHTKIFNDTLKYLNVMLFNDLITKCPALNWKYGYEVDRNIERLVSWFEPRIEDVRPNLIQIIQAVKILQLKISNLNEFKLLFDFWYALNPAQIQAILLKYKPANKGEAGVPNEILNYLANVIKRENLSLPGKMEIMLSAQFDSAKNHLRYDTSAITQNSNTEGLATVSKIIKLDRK", "assay": "pull-down", "data": [{"binder": "B1", "values": [{"measurement": "binding result", "value": "binds"}]}]}
